{"source": "patent US20030181408A1", "about": "“Genes essential for microbial proliferation and antisense thereto” (priority 1999, published 2003)", "molecules": {"B1": {"name": "EcXA062: antisense clone insert, E. coli gene rep (nucleic acid, listed as Escherichia coli)", "DNA": "CGCGTGGAGAGTCATCAGTTGCACCTGATCCAGCTCTTCTTCACTCTCACCACGCTCNATCATGTCGCGCAAAGTAAAGCGCGTCACCACCTGGGTGAGCGTCATCGGCTCATCCAGTTCACTGCCTTCCAGCATCTCCGTCATCCAGCTAAACAGTTGGTTGACGTTCTTCATGCGCATTTCGGCGGCTTTCGGGCTGGGCGATGTTTCGTACAGCCAGGATTCATAATCCATGCCATGGATCAGATCACGCACCGCGGCAATCGGCTCCCGCTCCGCCAGACGCTGGATTTCTGCCAACCAGTGAGTGAAGCGGGTCAATGCTTCA", "modifications": "misc_feature (1)...(328): n = A,T,C or G", "notes": "antisense clone insert, E. coli gene rep"}, "B2": {"name": "EcXA083: antisense clone insert, E. coli gene hrpB (nucleic acid, listed as Escherichia coli)", "DNA": "CGGCTTAGCGCGTCGTTGGCATCGAGCATCGCTCCCATGCCGTTTGCCAGTTGATAGCGTCCATCTTGCC"}}, "key": {"[1]": {"tested_on": "E. coli transformed with an IPTG-inducible plasmid containing antisense clones", "assay": "Cell based assay: antibiotic sensitivity of E. coli expressing sublethal antisense RNA (Example 9)", "from_the_text": "The effectiveness of the above cell based assay was validated using constructs expressing antisense RNA to the proliferation required E. coli genes rplL, rplJ, and rplW encoding ribosomal proteins L7/L12, L10 and L23 respectively. These proteins are part of the protein synthesis apparatus of the cell and as such are required for proliferation. These constructs were used to test the effect of antisense expression on cell sensitivity to antibiotics known to bind to the ribosome and thereby inhibit protein synthesis. Constructs expressing antisense RNA to several other genes (elaD, visC, yohh, and atpE/B), the products of which are not involved in protein synthesis were used for comparison.\nFirst pLex5BA (Krause et al., J. Mol. Biol. 274: 365 (1997), the disclosure of which is incorporated herein by reference in its entirety) expression vectors containing antisense constructs to either rplW or to elaD were introduced into separate E. coli cell populations. Vector introduction is a technique well known to those of ordinary skill in the art. The expression vectors of this example contain IPTG inducible promoters that drive the expression of the antisense RNA in the presence of the inducer. However, those skilled in the art will appreciate that other inducible promoters may also be used. Suitable expression vectors are also well known in the art. The E. coli antisense clones encoding ribosomal proteins L7/L12, L10 and L23 were used to test the effect of antisense expression on cell sensitivity to the antibiotics known to bind to these proteins. […]\nThe cell populations were exposed to a range of IPTG concentrations in liquid medium to obtain the growth inhibitory dose curve for each clone (FIG. 1). First, seed cultures were grown to a particular turbidity that is measured by the optical density (OD) of the growth solution. […] The cells were grown for up to 15 hours and the extent of growth was determined by measuring the optical density of the cultures at 600 nm. […]"}, "[2]": {"tested_on": "bacterial strain engineered for expression of an antisense against rplL and rplJ (50S ribosomal subunit proteins)", "assay": "microbe, parasite or virus in culture", "assay_type": "cell-based, E. coli", "conditions": "read-out: IC50 (+I)", "description": "Antibiotics of various chemical classes and modes of action were purchased from Sigma Chemicals (St. Louis, Mo.). Stock solutions were prepared by dissolving each antibiotic in an appropriate aqueous solution based on information provided by the manufacturer. The final working solution of each antibiotic contained no more than 0.2% (w/v) of any organic solvent. To determine their potency against a bacterial strain engineered for expression of an antisense against a proliferation-required gene encoding 50S ribosomal protein, each antibiotic was serially diluted two or three fold in growth medium supplemented with the appropriate antibiotic for maintenance of the anti-sense construct. At least ten dilutions were prepared for each antibiotic. 25 μL aliquots of each dilution were transferred to discrete wells of a 384-well microplate (the assay plate) using a multi-channel pipette. Quadruplicate wells were used for each dilution of an antibiotic under each treatment condition (plus and minus inducer). Each assay plate contained twenty wells for cell growth controls (growth media replacing antibiotic), ten wells for each treatment (plus and minus inducer, in this example IPTG). Assay plates were usually divided into the two treatments: half the plate containing induced cells and an appropriate concentrations of inducer (in this example IPTG) to maintain the state of induction, the other half containing non-induced cells in the absence of IPTG.\nCells for the assay were prepared as follows. Bacterial cells containing a construct, from which expression of antisense nucleic acid against rplL and rplJ, which encode proliferation-required 50S ribosomal subunit proteins, is inducible in the presence of IPTG, were grown into exponential growth (OD600 0.2 to 0.3) and then diluted 1:100 into fresh media containing either 400 μM or 0 μM inducer (IPTG). These cultures were incubated at 37° C. for 2.5 hr. After a 2.5 hr incubation, induced and non-induced cells were respectively diluted into an assay medium at a final OD600 value of 0.0004. The medium contained an appropriate concentration of the antibiotic for the maintenance of the anti-sense construct. In addition, the medium used to dilute induced cells was supplemented with 800 μM IPTG so that addition to the assay plate would result in a final IPTG concentration of 400 μM. Induced and non-induced cell suspensions were dispensed (25 μl/well) into the appropriate wells of the assay plate as discussed previously. The plate was then loaded into a plate reader, incubated at constant temperature, and cell growth was monitored in each well by the measurement of light scattering at 595 nm. Growth was monitored every 5 minutes until the cell culture attained a stationary growth phase. For each concentration of antibiotic, a percentage inhibition of growth was calculated at the time point corresponding to mid-exponential growth for the associated control wells (no antibiotic, plus or minus IPTG). For each antibiotic and condition (plus or minus IPTG), a plot of percent inhibition versus log of antibiotic concentration was generated and the IC50 determined."}, "E. coli": {"tested_on": "E. coli", "assay": "Inhibition of E. coli proliferation after IPTG induction of antisense clones (liquid growth curves, dilution spotting on plates)", "assay_type": "cell-based, Escherichia coli", "conditions": "1 mM IPTG", "description": "(§1) To study the effects of transcriptional induction in liquid medium, growth curves were carried out by back diluting cultures 1:200 into fresh media with or without 1 mM IPTG and measuring the OD450 every 30 minutes (min). To study the effects of transcriptional induction on solid medium, 10^2, 10^3, 10^4, 10^5, 10^6, 10^7 and 10^8 fold dilutions of overnight cultures were prepared. Aliquots of from 0.5 to 3 μl of these dilutions were spotted on selective agar plates with or without 1 mM IPTG. After overnight incubation, the plates were compared to assess the sensitivity of the clones to IPTG.\n(§2) Molecule No. EcXA059, encoding a portion of the ypjA gene of Escherichia coli, was either transformed directly into Enterobacter cloacae, Salmonella typhimurium and/or Klebsiella pneumoniae or subdloned into an expression vector functional in these species and the subclones transformed into these organisms. Suitable expression vectors are well known in the art. These expression vectors were introduced into Enterobacter cloacae, Salmonella typhimurium and/or Klebsiella pneumoniae cells that were then assayed for growth inhibition according to the method of Example 1. After growth in liquid culture, cells were plated at various serial dilutions and a score determined by calculating the log difference in growth for INDUCED vs. UNINDUCED antisense RNA expression as determined by the maximum 10 fold dilution at which a colony was observed. If there was no effect of antisense RNA expression in one organism, the clone is given a score of zero “0” in that organism. In contrast, a score of “8” means that 10^8 times more cells were required to observe a colony formed on the induced state than in the non-induced state under the conditions used and in that organism."}, "Enterobacter cloacae": {"tested_on": "Enterobacter cloacae", "assay": "Growth inhibition by IPTG-induced antisense RNA expression in Enterobacter cloacae (induced vs. uninduced serial dilution plating)", "assay_type": "cell-based", "description": "as §1, §2\n(§3) Expression vectors which inhibited growth of E. coli upon induction of antisense RNA expression with IPTG were transformed directly into Enterobacter cloacae, Klebsiella pneumonia or Salmonella typhimurium. The transformed cells were then assayed for growth inhibition according to the method of Example 1. After growth in liquid culture, cells were plated at various serial dilutions and a score determined by calculating the log difference in growth for INDUCED vs. UNINDUCED antisense RNA expression as determined by the maximum 10 fold dilution at which a colony was observed. If there was no effect of antisense RNA expression in a microorganism, the clone is minus in Table V below. In contrast, a positive in Table V below means that at least 10 fold more cells were required to observe a colony on the induced plate than on the non-induced plate under the conditions used and in that microorganism."}, "Klebsiella pneumoniae": {"tested_on": "Klebsiella pneumoniae", "assay": "Growth inhibition by IPTG-induced antisense RNA expression in Klebsiella pneumoniae (induced vs. uninduced serial dilution plating)", "assay_type": "cell-based", "description": "as §1, §2, §3"}, "Salmonella typhimurium": {"tested_on": "Salmonella typhimurium", "assay": "Growth inhibition by IPTG-induced antisense RNA expression in Salmonella typhimurium (induced vs. uninduced serial dilution plating)", "assay_type": "cell-based", "description": "as §1, §2, §3"}}}
{"molecule": "CN(C)[C@@H]1C(O)=C(C(N)=O)C(=O)[C@@]2(O)C(O)=C3C(=O)c4c(O)cccc4[C@@](C)(O)[C@H]3C[C@@H]12", "note": "[Tetracycline]", "values": [{"measurement": "sensitivity to tetracycline (tetracycline IC50 with IPTG vs. without IPTG)", "setting": "[1]; cells expressing antisense to genes not involved in protein synthesis (atpB/E, visC, elaD, yohH)", "result": "did not show the same increased sensitivity"}, {"measurement": "sensitivity to tetracycline (tetracycline IC50 with IPTG vs. without IPTG)", "setting": "[1]; cells with reduced levels of L7/L12 (rplL, rplJ) or L23 (rplW), IPTG giving 50% growth inhibition", "result": "increased sensitivity"}]}
{"molecule": "CC1COc2c(N3CCN(C)CC3)c(F)cc3c(=O)c(C(=O)O)cn1c23", "note": "(stereo not drawn) [Ofloxacin]", "values": [{"measurement": "sensitivity to antibiotics which do not inhibit protein synthesis", "setting": "[1]; clone expressing antisense to rplL and rplJ", "result": "does not show increased sensitivity"}, {"measurement": "IC50", "setting": "[2]", "result": 0.0458, "unit": "µg/mL"}]}
{"molecule": "B1", "values": [{"measurement": "effect of antisense expression on E. coli growth after IPTG induction", "setting": "E. coli", "result": "reduction in cell growth"}, {"measurement": "Sensitivity of E. cloacae to antisense nucleic acid (growth inhibition, induced vs. uninduced)", "setting": "Enterobacter cloacae", "result": "−"}, {"measurement": "Sensitivity of K. pneumoniae to antisense nucleic acid (growth inhibition, induced vs. uninduced)", "setting": "Klebsiella pneumoniae", "result": "−"}, {"measurement": "Sensitivity of S. typhimurium to antisense nucleic acid (growth inhibition, induced vs. uninduced)", "setting": "Salmonella typhimurium", "result": "−"}]}
{"molecule": "B2", "values": [{"measurement": "effect of antisense expression on E. coli growth after IPTG induction", "setting": "E. coli", "result": "reduction in cell growth"}, {"measurement": "Sensitivity of E. cloacae to antisense nucleic acid (growth inhibition, induced vs. uninduced)", "setting": "Enterobacter cloacae", "result": "−"}, {"measurement": "Sensitivity of K. pneumoniae to antisense nucleic acid (growth inhibition, induced vs. uninduced)", "setting": "Klebsiella pneumoniae", "result": "−"}, {"measurement": "Sensitivity of S. typhimurium to antisense nucleic acid (growth inhibition, induced vs. uninduced)", "setting": "Salmonella typhimurium", "result": "−"}]}
